# Measurements from FireProtDB (doi:10.1021/bi00067a022).
# B1: Ribonuclease, P00648 (parent)
# chain: MMKMEGIALKKRLSWISVCLLVLVSAAGMLFSTAAKTETSSHKAHTEAQVINTFDGVADYLQTYHKLPDNYITKSEAQALGWVASKGNLADVAPGKSIGGDIFSNREGKLPGKSGRTWREADINYTSGFRNSDRILYSSDWLIYKTTDHYQTFTKIR
# Variants of: B1
# Details: Bacillus amyloliquefaciens, pH 6.3, 25 °C, Fluorescence, MES 450 mM, reversible: yes, structure 1BNI, whole UniProt chain shown
Variant,ddG of mutation (higher = less stable) (GdnHCl),denaturant m value (GdnHCl),denaturant midpoint (higher = more stable) (GdnHCl),unfolding free energy (GdnHCl),ddG of mutation (higher = less stable) (Urea),denaturant m value (Urea),denaturant midpoint (higher = more stable) (Urea),unfolding free energy (Urea)
MMKMEGIALKKRLSWISVCLLVLVSAAGMLFSTAAKTETSSHKAHTEAQVINTFDGVADYLQTYHKLPDNYITKSEAQALGWVASKGNLADVAPGKSIGGDIFSNREGKLPGKSGRTWREADINYTSGFRNCDRILYSSDWLIYKTTDCYQTFTKIR,-4.1 kcal/mol,4.3 kcal/mol/M,3 M,12.9 kcal/mol,–,–,–,–
MMKMEGIALKKRLSWISVCLLVLVSAAGMLFSTAAKTETSSHKAHTEAQVINTFDGVADYLQTYHKLPDNYITKSEAQALGWVASKGNLCDVAPGKSIGGDIFSNREGKLPGKSGRTWREADINYTCGFRNSDRILYSSDWLIYKTTDHYQTFTKIR,–,–,–,–,-1.21 kcal/mol,1.73 kcal/mol/M,5.77 M,10 kcal/mol
